From article PMC9820559, “Investigation of the Fuzzy Complex between RSV Nucleoprotein and Phosphoprotein to Optimize an Inhibition Assay by Fluorescence Polarization” (International Journal of Molecular Sciences, 2022) come the findings set out here.

The target of test [1] is T1, RSV NNTD (Human respiratory syncytial virus A, UniProt P03418).
T1 construct: The N-terminal domain NNTD (residues 31–252), containing a C-terminal 6x histidine tag; 6xHis (C); made in house; host or cells: E. coli BL21(DE3)
Nature of the test: NMR titration of 15N-labeled NNTD (1H-15N HSQC chemical shift perturbations). The following applies: 20 mM MES pH 6.5, 250 mM NaCl, 20 °C; single site model; mean of 26 individual values; read-out: mean Kd from residue-specific Kds. Type of test: binding. The source says:
Here, as P protein is constitutively phosphorylated on Ser232 and Ser237 residues in cells, we first investigated the impact of phosphorylation on the affinity of the NNTD-PCtail complex. We performed an NMR titration experiment by adding increasing amounts of pP11 peptide, where Ser232 and Ser237 residues were replaced by O-phosphoserines (pSer, Figure 1A), to a solution of ^15N-labeled NNTD, and measured 2D ^1H-^15N HSQC spectra (Figure 2A). We worked in the same buffer as with P12. At pH 6.5, the pSer sidechains are expected to be mostly negatively charged. Addition of pP11 induced perturbations in the HSQC spectrum of NNTD, in particular chemical shift perturbations (CSPs). […] We measured combined ^1H and ^15N amide CSPs (Equation (1)) for NNTD signals in a fast chemical exchange regime, i.e., signals that shifted in the spectrum without broadening at intermediate titration points (e.g., Ile129 in Figure 2A). Significant CSPs were located in and around the P-binding pocket, confirming that pP11 binds to the previously determined P-binding epitope on NNTD (Figure 2B,C). […]
Overall, signals of bound NNTD were broader than those of unbound NNTD (Figure 2A). […] From chemical shift differences measured for these residues we determined an exchange rate kex of ~800 s^−1 (from Equation (3)) between free and bound NNTD, which indicates a fast dynamic process. […]

Test [2] concerns the target T2, RSV N-RNA complex (Human respiratory syncytial virus A, UniProt P03418).
T2 construct: Full-length N was produced by co-expression with the C-terminal domain of RSV P protein in E. coli BL21(DE3); made in house; host or cells: E. coli BL21(DE3), co-transformed with pET-N and pGEX-P(161–241)
Put plainly: Fluorescence polarization inhibition of N-RNA binding to fluorescent probes. The following applies: Ki, probe BCN11EE, [N-RNA] 1 µM; IC50-to-Ki server. The source says:
We next performed inhibition experiments for the F11-(N-RNA) complex by M76 (Figure 4B). FP values decreased with increasing competitor concentration. At saturation, FP nearly reached the value of free F11, showing that the F11 peptide could be nearly completely displaced. Since the same concentration range was used for NNTD and N-RNA, poor solubility of M76 can be ruled out to explain the saturation observed before complete displacement of F11 in the presence NNTD (Figure 3C). This reinforces the hypothesis of a second binding site on NNTD, outside the canonical P-binding site. […]
To probe the potency of M76 as an inhibitor, we carried out competition experiments with the M76 molecule and several BCNn peptides. M76 was able to displace the fluorescent probes from N-RNA, and inhibition curves were obtained (Figure 8E). Since we used different N concentrations to have similar dynamic ranges of FP for the series of fluorescent peptides, we cannot directly compare M76 IC50s. However, Kis may be compared.
Fluorescence polarization measurements were carried out on a Paradigm Detection Platform (Beckman Coulter, Brea, CA, USA) operating with a microplate reader, a fluorescein detection cartridge (excitation range 485/20 nm, emission range 535/25 nm for both parallel and perpendicular components) and the SpectraMax Pro 6.1 software (Molecular Devices, San Jose, CA, USA). Samples were placed in polystyrene black flat bottom 96-well microplates (Cellstar, Greiner bio-one, Frickenhausen, Germany) with 20 µL final volume in each well. If not stated otherwise, the final concentration of fluorescent ligands was 200 nM. The buffer was either 20 mM MES pH 6.5, salt-free or with 250 mM NaCl, or 20 mM Tris pH 8.0 salt-free or with 100 mM NaCl, supplemented with 0.01% Brij-35. Mixing was done using the corresponding plate reader option. The temperature was set to 20 °C. Data were recorded in top reading mode. Measurements were done in triplicate and after an incubation time of 30 min, if not indicated otherwise. Fluorescence polarization (FP) in mFP units was determined from the parallel (I∥) and perpendicular (I⊥) components of the emitted light according to Equation (4). A grating factor G of 1.2 was determined using 1 nM fluorescein in 1 mM NaOH and assuming a theoretical FP of 27 mFP [48]. Background signal was measured from wells containing only buffer, and the mean value was subtracted from each I∥ and I⊥ component. (4) FP (mP)=1000×(I∥−G∗I⊥)/(I∥+G×I⊥)
To assess inhibition of a complex between a fluorescent probe and N protein by peptides or the M76 molecule, the concentration of N was set to work with an FP range comprised between FPmin and ~80% FPmax. Peptides were added from 1 or 2 mM stock solution in water at neutral pH. M76 was added from 10 or 20 mM stock solutions in ethanol or in DMSO. […] Inhibition data were fitted with Origin 7, and in parallel with the Excel solver module. All data were compatible with an absence of cooperativity. FPmax and FPmin were fitted, and the maximal inhibition %i,max was set to 100%. (11) %i=100×[1−(FP−FPmin)/(FPmax−FPmin)] (12) %i=%i,max×[inhibitor]/[inhibitor]+IC50
Inhibition constants Ki were calculated on the IC50-to-Ki converter for a protein-ligand-inhibitor system (https://bioinfo-abcc.ncifcrf.gov/IC50_Ki_Converter/index.php, accessed on 24 August 2022), assuming a competitive mechanism (Equation (13)). This tool takes into account the free concentrations of protein and ligand. (13) Ki=(IC50−[protein]/2)/([peptide]/Kd+1)

Test [3] deals with T3, RSV nucleoprotein N-terminal domain NNTD (residues 31–252) (human respiratory syncytial virus, UniProt P03418 31-252).
T3 construct: N-terminal domain of human RSV nucleoprotein N, residues 31-252; 15N-labelled for the NMR titration; also called N(31–252); 15N-NNTD; source: E. coli BL21(DE3), pET-N(31–252), purified as described previously [21]
T3 sequence (looked up): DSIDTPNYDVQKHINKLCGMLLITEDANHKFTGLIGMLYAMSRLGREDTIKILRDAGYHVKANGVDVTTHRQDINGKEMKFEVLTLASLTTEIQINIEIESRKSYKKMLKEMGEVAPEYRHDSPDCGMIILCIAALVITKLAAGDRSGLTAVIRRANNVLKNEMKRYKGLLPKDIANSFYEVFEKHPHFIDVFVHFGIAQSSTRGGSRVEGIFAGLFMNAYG
Nature of the test: fluorescence polarisation; 200 nM F11, NNTD 0.1–120 µM; 20 mM MES pH 6.5, 250 mM NaCl, 0.01% Brij-35; 20 °C; single site model; saturation not reached. The following applies: both partners purified. A general note: Fluorescence polarisation rises when a labelled molecule tumbles more slowly, as on binding a larger partner.

Test [4] concerns the target T3, RSV nucleoprotein N-terminal domain …. Nature of the test: fluorescence polarisation; 200 nM F11, NNTD varied; 20 mM MES pH 6.5 without salt, 0.01% Brij-35; 20 °C; single site plus a linear contribution. The following applies: both partners purified.
The target in test [5] is T4, RSV N-RNA complex (full-length N protein in ring-shaped complexes with bacterial RNA) (human respiratory syncytial virus, UniProt P03418 1-391).
T4 construct: human RSV nucleoprotein N, full length; concentrations are of N protomer; also called N-RNA rings; source: in lysate for the co-purification; purified (glutathione-Sepharose, thrombin, Superdex 200) as N-RNA complex; copies: 10-11
T4 sequence (looked up): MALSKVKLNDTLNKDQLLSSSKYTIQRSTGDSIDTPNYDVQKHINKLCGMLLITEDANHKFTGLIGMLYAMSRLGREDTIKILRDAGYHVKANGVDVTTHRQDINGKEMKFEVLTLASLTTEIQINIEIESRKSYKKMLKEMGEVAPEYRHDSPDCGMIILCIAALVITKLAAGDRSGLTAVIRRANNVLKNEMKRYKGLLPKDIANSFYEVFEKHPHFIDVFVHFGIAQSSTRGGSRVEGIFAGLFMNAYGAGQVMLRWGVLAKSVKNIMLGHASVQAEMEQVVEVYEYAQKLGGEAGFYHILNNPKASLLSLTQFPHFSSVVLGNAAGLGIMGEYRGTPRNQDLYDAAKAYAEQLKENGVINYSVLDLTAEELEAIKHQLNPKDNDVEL
Put plainly: fluorescence polarisation; competition: unlabeled pP11 varied against 200 nM BCN_(11EE) on 1 µM N-RNA; Tris pH 8 buffer; Hill equation; Ki from the IC50-to-Ki server. Particulars: both partners purified.

Square brackets hold non-standard residues; d marks the D form. Ends that are not written are not given here. Peptide text beside a SMILES is read from it. * marks the point of attachment. FITC = O=C1OC2(c3ccc(O)cc3Oc3cc(O)ccc32)c2ccc(NC(=S)*)cc21; pS = N[C@@H](COP(=O)(O)O)C(=O)O

A word on the Kd: it is the concentration at which binding is half-saturated. Usually Ki stands for a measure of affinity in units of concentration, obtained from inhibition or displacement. Low readings indicate tighter binding, high ones weaker binding. As for `CC(C)C[C@H](NC(=O)[C@H](COP(=O)(O)O)NC(=O)[C@H](CC(C)C)NC(=O)[C@H](CC(=O)O)NC(=O)[C@H](CC(N)=O)NC(=O)[C@H](CC(=O)O)NC(=O)[C@H](COP(=O)(O)O)NC(=O)[C@@H](N)CC(=O)O)C(=O)N[C@@H](CCC(=O)O)C(=O)N[C@@H](CC(=O)O)C(=O)N[C@@H](Cc1ccccc1)C(=O)O` [pP11] (H-D[pS]DNDL[pS]LEDF-OH), the Kd in test [1] is 17 ± 4.5 µM. The Ki in test [2] was found to be 1.4 µM.

B1: F11 (fluorescein-5-thiourea-labelled RSV P11 peptide) (peptide)
peptide: {FITC}-DSDNDLSLEDF
notes: C-terminal 11 residues of RSV phosphoprotein P; also called F_(11SS); FTU-P11; source: bought P11 peptide (GeneCust), FITC coupled in solution, HPLC purified
Take B1: the Kd in test [3] was found to be 90 ± 15 µM; in test [4], 0.6 ± 0.1 µM.

B2: pP11 peptide (RSV P C-terminal 11-mer with O-phosphoserines at 232 and 237) (peptide)
peptide: D[pS]DNDL[pS]LEDF
notes: C-terminal 11 residues of RSV phosphoprotein P with Ser232 and Ser237 as O-phosphoserines; source: bought: GeneCust (synthetic peptide, >95% purity)
Usually IC50 stands for the concentration that gives 50% inhibition. A high value points to lower potency. B2 had an IC50 in test [5] of 6.9 ± 1.2 µM.
